US20220332795A1

Biological target: human serum albumin (human) (UniProt P02768)
Assay: solution ELISA screen (luminescence)

Chain of human serum albumin (human) (P02768 25-609 limits assumed): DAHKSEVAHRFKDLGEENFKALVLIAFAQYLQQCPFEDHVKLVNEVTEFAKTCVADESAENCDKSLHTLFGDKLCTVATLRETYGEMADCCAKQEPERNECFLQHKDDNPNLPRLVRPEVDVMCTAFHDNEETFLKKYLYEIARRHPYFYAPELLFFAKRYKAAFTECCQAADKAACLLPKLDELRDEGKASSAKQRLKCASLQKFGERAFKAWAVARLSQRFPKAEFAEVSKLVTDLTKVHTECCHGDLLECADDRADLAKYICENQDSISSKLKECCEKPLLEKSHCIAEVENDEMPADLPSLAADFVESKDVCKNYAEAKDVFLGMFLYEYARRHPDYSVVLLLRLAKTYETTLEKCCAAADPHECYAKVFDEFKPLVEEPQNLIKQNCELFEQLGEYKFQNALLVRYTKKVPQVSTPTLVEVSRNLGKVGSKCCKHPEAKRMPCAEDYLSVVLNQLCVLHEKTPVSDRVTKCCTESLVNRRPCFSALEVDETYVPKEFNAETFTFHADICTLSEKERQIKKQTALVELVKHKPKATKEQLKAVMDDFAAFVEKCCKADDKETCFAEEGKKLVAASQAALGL

Binder | RLU [RLU]
SEQ ID NO 234 (designed binder, not shown: small tags and cut ends) MLPAPKNLVVSRVTEDSARLSWTAPDAAFDSFYIAYAEPRPDGEAIVLVVPGSERSYDLTGLKPGTEYSVLIHGVKGGLLSSPLSAIFTT | 20800
SEQ ID NO 237 (designed binder, not shown: small tags and cut ends) MLPAPKNLVVSRVTEDSARLSWTAPDAAFDSFYIAYAEPRPDGEAIVLAVPGSERSYDLTGLKPGTEYSVLIHGVKGGLLSSPLYASFTT | 27700
SEQ ID NO 240 (designed binder, not shown: small tags and cut ends) MLPAPKNLVVSRVTEDSARLSWTAPDAAFDSFYIAYAEPRPDGEAISLSVPGSERSYDLTGLKPGTEYSVLIHGVKGGLLSSPLHAKFTT | 18000
SEQ ID NO 236 (designed binder, not shown: small tags and cut ends) MLPAPKNLVVSRVTEDSARLSWTAPDAAFDSFYIAYAEPRPDGEAILLQVPGSERSYDLTGLKPGTEYSVLIHGVKGGLLSSPLDAEFTT | 15600
SEQ ID NO 239 (designed binder, not shown: small tags and cut ends) MLPAPKNLVVSRVTEDSARLSWTAPDAAFDSFYIAYAEPRPDGEAIQLVVPGSERSYDLTGLKPGTEYSVLIHGVKGGLLSSPLYAIFTT | 21100
SEQ ID NO 235 (designed binder, not shown: small tags and cut ends) MLPAPKNLVVSRVTEDSARLSWTAPDAAFDSFFIGYLEPQPPGEAIQLTVPGSERSYDLTGLKPGTEYNVTIQGVKGGFPSLPLSADFTT | 23800
SEQ ID NO 238 (designed binder, not shown: small tags and cut ends) MLPAPKNLVVSRVTEDSARLSWTTPDAAFDSFYIAYAEPRPDGEAIRLQVPGSERSYDLTGLKPGTEYSVLIHGVKGGLLSSPLGFTT | 99000
